Laboratory results taken from patent US8252303B2, “Injectable depot compositions and uses thereof” (Durect Corporation, priority 2002, dated 2012).

Test: Preliminary stability of PDGF preformulations in the gel vehicle (SEC and rpHPLC)
Assay type: physicochemical
Conditions: 5° C. for 1 day, Bulk PDGF as reference
Protocol: All lyophilized protein formulations as listed in Tables 8 and 9, were mixed into a gel vehicle with the composition of PLGA RG502/Benzyl Benzoate (BB)/benzyl alcohol (BA) of 40/45/15 with the loading of the protein formulation about 10 wt %. After being stored at 5° C. for 1 day, the mixtures were extracted with an organic solvent mixture of methylene chloride and acetone (ratio of 50/50) as described in the example 15 above. The purity of the PDGF-BB was analyzed by both reverse phase HPLC (rpHPLC) and size exclusion chromatography (SEC). In general, no distinguishable degradation of the PDGF-BB was found in the PDGF-BB formulation incorporated with the excipients as described in the Example 18 and mixed with the gel vehicle of the present invention.

Bulk PDGF: PDGF-BB bulk solution, i.e., aqueous solution of PDGF in acetate buffer
% PDGF dimmer by SEC (Table 8 (succinate)): 0.73% | % other peaks by rp-HPLC (Table 8 (succinate)): 0.0% | % peak at RRT = 1.10 by rp-HPLC (Table 8 (succinate)): 1.2% | % PDGF dimer by SEC (Table 9 (histidine)): 0.73% | % other peaks by rp-HPLC (Table 9 (histidine)): 0.0% | % peak at RRT = 1.10 by rp-HPLC (Table 9 (histidine)): 1.2%
